Tested on: Escherichia coli TOP10
Test: shrunken log2 fold change of peptide-encoding DNA abundance (4.5 h post-induction vs induction); higher = less antimicrobial activity (less host growth inhibition)
Details: time post-induction: 4.5 h; library: site-saturation at positions 5, 18, 19, 20
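Also: peptides expressed intracellularly from a pBAD plasmid library in pooled LB shake-flask culture, induced with 0.3% L-arabinose, DNA abundance read by NGS, three biological replicates, DESeq2 with apeglm shrinkage.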

For RRIRRRPPRLPRPRPRPSWGPRP, the “shrunken log2 fold change” value was -0.0778.

For RRIRRRPPRLPRPRPRPSWMPRP, the “shrunken log2 fold change” value was -0.324.

With RRIRRRPPRLPRPRPRPSYCPRP the “shrunken log2 fold change” value was -0.0727.

With RRIRRRPPRLPRPRPRPSYPPRP the “shrunken log2 fold change” value was -0.115.

RRIRRRPPRLPRPRPRPSYYPRP was tested, and the “shrunken log2 fold change” value was -0.0156.

For RRIRRRPPRLPRPRPRPTCMPRP, the “shrunken log2 fold change” value was 0.315.

For RRIRRRPPRLPRPRPRPTEEPRP, the “shrunken log2 fold change” value was 1.07.

In the case of RRIRRRPPRLPRPRPRPTELPRP, the “shrunken log2 fold change” value is reported as 0.42.

For RRIRRRPPRLPRPRPRPTFRPRP, the “shrunken log2 fold change” value was 0.0132.

In the case of RRIRRRPPRLPRPRPRPTGDPRP, the “shrunken log2 fold change” value is reported as 0.0418.

RRIRRRPPRLPRPRPRPTHWPRP was tested, and the “shrunken log2 fold change” value was 0.988.

With RRIRRRPPRLPRPRPRPTIAPRP the “shrunken log2 fold change” value was 0.0702.

In the case of RRIRRRPPRLPRPRPRPTIGPRP, the “shrunken log2 fold change” value is reported as -0.229.

For RRIRRRPPRLPRPRPRPTIIPRP, the “shrunken log2 fold change” value was -0.159.

With RRIRRRPPRLPRPRPRPTKLPRP the “shrunken log2 fold change” value was 0.111.

RRIRRRPPRLPRPRPRPTKYPRP was tested, and the “shrunken log2 fold change” value was -0.198.

With RRIRRRPPRLPRPRPRPTLFPRP the “shrunken log2 fold change” value was 0.826.

With RRIRRRPPRLPRPRPRPTPLPRP the “shrunken log2 fold change” value was 0.744.

For RRIRRRPPRLPRPRPRPTQDPRP, the “shrunken log2 fold change” value was 1.87.

For RRIRRRPPRLPRPRPRPTQHPRP, the “shrunken log2 fold change” value was 0.691.

For RRIRRRPPRLPRPRPRPTQPPRP, the “shrunken log2 fold change” value was 0.155.

RRIRRRPPRLPRPRPRPTSAPRP was tested, and the “shrunken log2 fold change” value was 0.274.

For RRIRRRPPRLPRPRPRPTSHPRP, the “shrunken log2 fold change” value was 0.321.

For RRIRRRPPRLPRPRPRPTVWPRP, the “shrunken log2 fold change” value was 0.359.

With RRIRRRPPRLPRPRPRPTYDPRP the “shrunken log2 fold change” value was 0.0415.

RRIRRRPPRLPRPRPRPTYKPRP was tested, and the “shrunken log2 fold change” value was -0.163.

In the case of RRIRRRPPRLPRPRPRPTYNPRP, the “shrunken log2 fold change” value is reported as -0.267.

For RRIRRRPPRLPRPRPRPTYRPRP, the “shrunken log2 fold change” value was 0.309.

For RRIRRRPPRLPRPRPRPVAAPRP, the “shrunken log2 fold change” value was 1.42.

With RRIRRRPPRLPRPRPRPVCCPRP the “shrunken log2 fold change” value was 0.158.

With RRIRRRPPRLPRPRPRPVCPPRP the “shrunken log2 fold change” value was 0.32.

RRIRRRPPRLPRPRPRPVCRPRP was tested, and the “shrunken log2 fold change” value was 0.562.

In the case of RRIRRRPPRLPRPRPRPVFDPRP, the “shrunken log2 fold change” value is reported as 0.348.

In the case of RRIRRRPPRLPRPRPRPVHCPRP, the “shrunken log2 fold change” value is reported as 0.345.

In the case of RRIRRRPPRLPRPRPRPVIFPRP, the “shrunken log2 fold change” value is reported as 0.145.

For RRIRRRPPRLPRPRPRPVKKPRP, the “shrunken log2 fold change” value was 0.0447.

RRIRRRPPRLPRPRPRPVLIPRP was tested, and the “shrunken log2 fold change” value was 0.177.

For RRIRRRPPRLPRPRPRPVMEPRP, the “shrunken log2 fold change” value was 0.305.

In the case of RRIRRRPPRLPRPRPRPVNKPRP, the “shrunken log2 fold change” value is reported as 0.169.

RRIRRRPPRLPRPRPRPVNSPRP was tested, and the “shrunken log2 fold change” value was -0.0287.

For RRIRRRPPRLPRPRPRPVTEPRP, the “shrunken log2 fold change” value was 0.285.

With RRIRRRPPRLPRPRPRPVTSPRP the “shrunken log2 fold change” value was 0.0312.

RRIRRRPPRLPRPRPRPVYAPRP was tested, and the “shrunken log2 fold change” value was 0.21.

With RRIRRRPPRLPRPRPRPVYDPRP the “shrunken log2 fold change” value was -0.331.

In the case of RRIRRRPPRLPRPRPRPVYLPRP, the “shrunken log2 fold change” value is reported as -0.173.

In the case of RRIRRRPPRLPRPRPRPVYMPRP, the “shrunken log2 fold change” value is reported as -0.0789.

In the case of RRIRRRPPRLPRPRPRPWAEPRP, the “shrunken log2 fold change” value is reported as 2.36.

RRIRRRPPRLPRPRPRPWCEPRP was tested, and the “shrunken log2 fold change” value was -0.0981.

For RRIRRRPPRLPRPRPRPWCHPRP, the “shrunken log2 fold change” value was -0.0754.

For RRIRRRPPRLPRPRPRPWDDPRP, the “shrunken log2 fold change” value was -0.0642.

With RRIRRRPPRLPRPRPRPWEAPRP the “shrunken log2 fold change” value was 0.155.

RRIRRRPPRLPRPRPRPWFTPRP was tested, and the “shrunken log2 fold change” value was 0.0255.

In the case of RRIRRRPPRLPRPRPRPWGDPRP, the “shrunken log2 fold change” value is reported as -0.0841.

RRIRRRPPRLPRPRPRPWGEPRP was tested, and the “shrunken log2 fold change” value was 2.96.

For RRIRRRPPRLPRPRPRPWGQPRP, the “shrunken log2 fold change” value was 0.0104.

In the case of RRIRRRPPRLPRPRPRPWGTPRP, the “shrunken log2 fold change” value is reported as -0.0589.

With RRIRRRPPRLPRPRPRPWHFPRP the “shrunken log2 fold change” value was 0.121.

RRIRRRPPRLPRPRPRPWISPRP was tested, and the “shrunken log2 fold change” value was -0.382.

With RRIRRRPPRLPRPRPRPWKEPRP the “shrunken log2 fold change” value was -0.00773.

RRIRRRPPRLPRPRPRPWLQPRP was tested, and the “shrunken log2 fold change” value was 0.0763.

With RRIRRRPPRLPRPRPRPWMLPRP the “shrunken log2 fold change” value was 0.227.

RRIRRRPPRLPRPRPRPWMQPRP was tested, and the “shrunken log2 fold change” value was 0.0811.

For RRIRRRPPRLPRPRPRPWPMPRP, the “shrunken log2 fold change” value was -0.157.

For RRIRRRPPRLPRPRPRPWRNPRP, the “shrunken log2 fold change” value was 0.0985.

For RRIRRRPPRLPRPRPRPWSTPRP, the “shrunken log2 fold change” value was -0.0543.

RRIRRRPPRLPRPRPRPWTIPRP was tested, and the “shrunken log2 fold change” value was -0.189.

In the case of RRIRRRPPRLPRPRPRPWTLPRP, the “shrunken log2 fold change” value is reported as -0.195.

With RRIRRRPPRLPRPRPRPWWNPRP the “shrunken log2 fold change” value was -0.188.

RRIRRRPPRLPRPRPRPYASPRP was tested, and the “shrunken log2 fold change” value was -0.0782.

For RRIRRRPPRLPRPRPRPYCFPRP, the “shrunken log2 fold change” value was -0.37.

With RRIRRRPPRLPRPRPRPYDRPRP the “shrunken log2 fold change” value was -0.164.

With RRIRRRPPRLPRPRPRPYDTPRP the “shrunken log2 fold change” value was 0.0504.

For RRIRRRPPRLPRPRPRPYFEPRP, the “shrunken log2 fold change” value was -0.562.

With RRIRRRPPRLPRPRPRPYGEPRP the “shrunken log2 fold change” value was -0.0212.

In the case of RRIRRRPPRLPRPRPRPYGFPRP, the “shrunken log2 fold change” value is reported as -0.298.

With RRIRRRPPRLPRPRPRPYHCPRP the “shrunken log2 fold change” value was -0.37.

For RRIRRRPPRLPRPRPRPYIDPRP, the “shrunken log2 fold change” value was -0.339.

RRIRRRPPRLPRPRPRPYIHPRP was tested, and the “shrunken log2 fold change” value was -0.794.

RRIRRRPPRLPRPRPRPYKWPRP was tested, and the “shrunken log2 fold change” value was -0.138.

With RRIRRRPPRLPRPRPRPYLEPRP the “shrunken log2 fold change” value was -0.298.

With RRIRRRPPRLPRPRPRPYMEPRP the “shrunken log2 fold change” value was -0.0924.

For RRIRRRPPRLPRPRPRPYMVPRP, the “shrunken log2 fold change” value was -0.361.

With RRIRRRPPRLPRPRPRPYPHPRP the “shrunken log2 fold change” value was -0.181.

With RRIRRRPPRLPRPRPRPYQGPRP the “shrunken log2 fold change” value was -0.00892.

For RRIRRRPPRLPRPRPRPYREPRP, the “shrunken log2 fold change” value was -0.344.

For RRIRRRPPRLPRPRPRPYTGPRP, the “shrunken log2 fold change” value was -0.126.

In the case of RRIRRRPPRLPRPRPRPYTPPRP, the “shrunken log2 fold change” value is reported as -0.225.

In the case of RRIRRRPPRLPRPRPRPYVHPRP, the “shrunken log2 fold change” value is reported as -0.356.

In the case of RRIRRRPPRLPRPRPRPYVPPRP, the “shrunken log2 fold change” value is reported as -0.241.

With RRIRRRPPRLPRPRPRPYVTPRP the “shrunken log2 fold change” value was -0.383.

With RRIRRRPPRLPRPRPRPYYAPRP the “shrunken log2 fold change” value was -0.561.

With RRIRRRPPRLPRPRPRPYYLPRP the “shrunken log2 fold change” value was -0.308.

RRIRRRPPRLPRPRPRPYYNPRP was tested, and the “shrunken log2 fold change” value was -0.807.

With RRIRSRPPRLPRPRPRPACLPRP the “shrunken log2 fold change” value was 0.0251.

RRIRSRPPRLPRPRPRPACVPRP was tested, and the “shrunken log2 fold change” value was 0.224.

With RRIRSRPPRLPRPRPRPADKPRP the “shrunken log2 fold change” value was -0.254.

With RRIRSRPPRLPRPRPRPADMPRP the “shrunken log2 fold change” value was 0.0296.

RRIRSRPPRLPRPRPRPAEGPRP was tested, and the “shrunken log2 fold change” value was 0.29.

With RRIRSRPPRLPRPRPRPAEKPRP the “shrunken log2 fold change” value was 0.0409.

For RRIRSRPPRLPRPRPRPAFAPRP, the “shrunken log2 fold change” value was 0.414.

With RRIRSRPPRLPRPRPRPAFWPRP the “shrunken log2 fold change” value was 0.651.

RRIRSRPPRLPRPRPRPAHRPRP was tested, and the “shrunken log2 fold change” value was -0.0259.

For RRIRSRPPRLPRPRPRPAHWPRP, the “shrunken log2 fold change” value was 0.416.

RRIRSRPPRLPRPRPRPAIQPRP was tested, and the “shrunken log2 fold change” value was -0.21.

For RRIRSRPPRLPRPRPRPAITPRP, the “shrunken log2 fold change” value was -0.0725.

In the case of RRIRSRPPRLPRPRPRPAKLPRP, the “shrunken log2 fold change” value is reported as 0.195.

For RRIRSRPPRLPRPRPRPALNPRP, the “shrunken log2 fold change” value was 0.161.

RRIRSRPPRLPRPRPRPAMEPRP was tested, and the “shrunken log2 fold change” value was -0.0044.

RRIRSRPPRLPRPRPRPAMPPRP was tested, and the “shrunken log2 fold change” value was 0.206.
